{
  "source": "paper PMC8553002",
  "about": "(Journal of Mass Spectrometry and Advances in the Clinical …, 2020)",
  "origin": "cited, not measured here",
  "conditions": "insulin degraded by the liver, to a minor extent, kidneys",
  "data": [
    {"substance": "Insulin: hormone released with C-peptide from proinsulin in equimolar amounts", "values": [
      {"measurement": "half-life", "result": "3 to 5", "unit": "min"}
    ]}
  ]
}
